The source of these data is US20120027677A1.

In the assay the target is PrP^Sc, pathogenic form of the human prion protein (from CJD brain homogenate) (human) (UniProt P04156).

In turn, 3F4 antibody came in with an ave (RLU), vCJD BH of 56.3 RLU.
